Laboratory results from article doi:10.1101/2023.08.15.553389.

Molecular target: IgG1 Fc L234C/E382A ("less-crystallisable" Fc with L234C exchange)
Assay: crystal structure

B1: EndoS2 (38-843) D184A/E186L, inactive exchange variant (enzyme)
chain: EKTVQTGKTDQQVGAKLVQEIREGKRGPLYAGYFRTWHDRASTGIDGKQQHPENTMAEVPKEVDILFVFHDHTASDSPFWSELKDSYVHKLHQQGTALVQTIGVNELNGRTGLSKDYPDTPEGNKALAAAIVKAFVTDRGVDGLDIAILHEFTNKRTPEEDARALNVFKEIAQLIGKNGSDKSKLLIMDTTLSVENNPIFKGIAEDLDYLLRQYYGSQGGEAEVDTINSDWNQYQNYIDASQFMIGFSFFEESASKGNLWFDVNEYDPNNPEKGKDIEGTRAKKYAEWQPSTGGLKAGIFSYAIDRDGVAHVPSTYKNRTSTNLQRHEVDNISHTDYTVSRKLKTLMTEDKRYDVIDQKDIPDPALREQIIQQVGQYKGDLERYNKTLVLTGDKIQNLKGLEKLSKLQKLELRQLSNVKEITPELLPESMKKDAELVMVGMTGLEKLNLSGLNRQTLDGIDVNSITHLTSFDISHNSLDLSEKSEDRKLLMTLMEQVSNHQKITVKNTAFENQKPKGYYPQTYDTKEGHYDVDNAEHDILTDFVFGTVTKRNTFIGDEEAFAIYKEGAVDGRQYVSKDYTYEAFRKDYKGYKVHLTASNLGETVTSKVTATTDETYLVDVSDGEKVVHHMKLNIGSGAIMMENLAKGAKVIGTSGDFEQAKKIFDGEKSDRFFTWGQTNWIAFDLGEINLAKEWRLFNAETNTEIKTDSSLNVAKGRLQILKDTTIDLEKMDIKNRKEYLSNDENWTDVAQMDDAKAIFNSKLSNVLSRYWRFCVDGGASSYYPQYTELQILGQRLSNDVANTLKD
Binder B1 has a stoichiometry N (EndoS2 molecules per Fc homodimer) of 2.
